In assay [1] the target is HLA-A*24:02. Nature of the assay: IEDB peptide-MHC binding, purified MHC/competitive/radioactivity; filed as Kd, often an IC50 or EC50 that approximates it; ≥ and ≤ were set here for values at or beyond the usual limits of such assays.
The target of assay [2] is HLA-A*30:02. The assay is described as above.
In assay [3] the target is HLA-A*26:01. Described as above.
The target of assay [4] is HLA-A*29:02. The assay is described as above.
For assay [5], the target named is HLA-A*01:01. The assay is described as above.
For assay [6], the target named is HLA-A*23:01. Described as above.
In assay [7] the target is HLA-B*15:01. The assay is described as above.
Assay [8] has as its target HLA-A*24:02. Nature of the assay: IEDB peptide-MHC binding, purified MHC/competitive/fluorescence; ≥ and ≤ were set here for values at or beyond the usual limits of such assays. The settings on record: source organism: Zaire ebolavirus.
Assay [9] concerns the target HLA-A*02:01. Described as above. The settings on record: source organism: Zaire ebolavirus.
In assay [10] the target is HLA-A*26:01. Nature of the assay: IEDB peptide-MHC binding, purified MHC/direct/fluorescence; filed as Kd, often an IC50 or EC50 that approximates it; ≥ and ≤ were set here for values at or beyond the usual limits of such assays. Conditions: source organism: Salmonella enterica subsp. enterica serovar Typhimurium.
Assay [11] has as its target HLA-A*33:01. In words: IEDB peptide-MHC binding, purified MHC/competitive/radioactivity; filed as Kd, often an IC50 or EC50 that approximates it; ≥ and ≤ were set here for values at or beyond the usual limits of such assays. The settings on record: source organism: SARS coronavirus Tor2.
Assay [12] has as its target HLA-A*03:01. Described as above. Conditions: source organism: SARS coronavirus Tor2.
Assay [13] addresses HLA-A*31:01. The description is as above. Conditions: source organism: SARS coronavirus Tor2.
Assay [14] has as its target HLA-A*68:01. The assay is described as above. Conditions: source organism: SARS coronavirus Tor2.
Assay [15] deals with HLA-A*11:01. The description is as above. The settings on record: source organism: SARS coronavirus Tor2.
Setting [16] is: source organism: SARS coronavirus Tor2.
Where [17] appears, read: source organism: Dengue virus 2 Jamaica/1409/1983.
Where [18] appears, read: source organism: Mammarenavirus guanaritoense.
Where [19] appears, read: source organism: Mammarenavirus brazilense.
Where [20] appears, read: source organism: Lymphocytic choriomeningitis virus (strain Armstrong).
Setting [21] is: source organism: Mammarenavirus whitewaterense.

Our source for the Kd and IC50 values is the Immune Epitope Database (IEDB).

Some results are limits rather than exact numbers.

By Kd is commonly meant the free concentration of one partner at which half of the binding sites on the other are occupied at equilibrium, for simple one-to-one binding. NTNPIQLSSY: the Kd is at least 70.3 µM in [1] (setting [16]); 0.0742 µM in assay [2] (setting [16]); 0.344 µM in [3] (setting [16]); 0.966 µM in [4] (setting [16]); 0.105 µM in assay [5] (setting [16]); at least 70 µM in assay [6] (setting [16]).
Turning to NYTQHTSSM, the Kd in assay [1] (setting [16]) was at least 91.8 µM; in assay [2] (setting [16]), at least 81.1 µM; in [3] (setting [16]), 16.3 µM; in [4] (setting [16]) it was at least 45.2 µM; in assay [5] (setting [16]) it was at least 57 µM; in [6] (setting [16]), at least 81.7 µM.
As to QLAMTDTTPF, the Kd in assay [7] (source organism: Dengue virus 4 Philippines/H241/1956) came out at 0.00234 µM.
In the case of QMAMTDTTPF, the values for the Kd in assay [1] (setting [17]) and in assay [7] (setting [17]) were 3.56 µM and 0.00723 µM, respectively.
What is called IC50 is the midpoint of a concentration-inhibition curve. A low value points to higher potency. On to REPVNATED, for which the IC50 in assay [8] is 12.7 µM; in assay [9] it was at least 383 µM.
Regarding RIKQRGILGY, the figures for the Kd in assay [2] (setting [17]) and in [7] (setting [17]) were 0.0204 µM and 0.0466 µM, respectively.
Regarding RTSFFLWVI, the IC50 in assay [8] was 0.0169 µM; in assay [9], 0.263 µM.
Turning to RVKLGLGIM, in assay [10], the dissociation constant Kd was found to be 1.3 µM.
For the sequence SADSFLLML, the results for the half-inhibitory concentration (IC50) in assay [8] and in assay [9] were at least 177 µM and at least 613 µM, respectively.
In the case of SLKSLYEAF, the Kd in [7] (source organism: Vaccinia virus WR) came to 0.0203 µM.
With SMMGFKMNY, the Kd turned out to be 9.36 µM in [1] (setting [16]); 0.0103 µM in assay [2] (setting [16]); 0.775 µM in assay [11]; 3.9 µM in assay [3] (setting [16]); 0.00489 µM in [12]; 0.213 µM in [13]. In addition, the Kd in assay [4] (setting [16]) worked out at 0.0139 µM; in assay [5] (setting [16]) it was 3.96 µM; in assay [14], 10.6 µM; in assay [6] (setting [16]), 7.55 µM; in assay [15] it was 0.0106 µM.
As to TDSPETHHY, the Kd was at least 77.5 µM in assay [1] (setting [18]); 9.32 µM in assay [2] (setting [18]); at least 77.9 µM in assay [3] (setting [18]); at least 78.9 µM in assay [4] (setting [18]); 16.8 µM in assay [5] (setting [18]); at least 77.7 µM in [6] (setting [18]).
As for TLDESFLGRY, the dissociation constant Kd is at least 70.3 µM in [1] (setting [16]); 0.00832 µM in assay [2] (setting [16]); 0.132 µM in assay [3] (setting [16]); 0.155 µM in assay [4] (setting [16]); 0.00566 µM in assay [5] (setting [16]); at least 70 µM in assay [6] (setting [16]).
As to VDICFWSTL, the Kd was 5.63 µM in [1] (setting [19]); 9.76 µM in assay [2] (setting [19]); at least 77.9 µM in [3] (setting [19]); at least 78.9 µM in assay [4] (setting [19]); 12 µM in [5] (setting [19]); 7.57 µM in assay [6] (setting [19]).
Turning to VFFGYFASHF, the Kd in assay [1] (setting [16]) came out at 0.00463 µM; in assay [2] (setting [16]), 2.82 µM; in [3] (setting [16]) it was 4.13 µM; in [4] (setting [16]), 0.000261 µM; in assay [5] (setting [16]) it was 12.9 µM; in assay [6] (setting [16]), 0.000595 µM.
As to VLYSYILFL, the Kd in [7] (source organism: Vaccinia virus Copenhagen) was found to be 0.559 µM.
For the sequence WCSQTSYQYL, the dissociation constant (Kd) is 15.9 µM in assay [1] (setting [20]); at least 29.6 µM in assay [2] (setting [20]); at least 69.7 µM in [3] (setting [20]); 19 µM in assay [4] (setting [20]); 1.04 µM in assay [5] (setting [20]); 8.29 µM in assay [6] (setting [20]).
Take WDIKDPSLL: the dissociation constant Kd was at least 77.5 µM in assay [1] (setting [21]); at least 34.8 µM in assay [2] (setting [21]); at least 77.9 µM in [3] (setting [21]); at least 27.6 µM in assay [4] (setting [21]); at least 42.3 µM in assay [5] (setting [21]); at least 77.7 µM in assay [6] (setting [21]).
